Source: article doi:10.1101/346296

Key:
[1] = molecular target: WT nucleosomal array with Sir2/4 complex added beforehand (S. cerevisiae | Xenopus laevis) (UniProt P06700); assay: AUC
[2] = molecular target: WT nucleosomal array (recombinant Xenopus laevis histone octamers on 601-177-12 or 601-177-36 DNA) (Xenopus laevis); assay: AUC

Substance	stoichiometry N (molecules of Sir3 per array) [1]	stoichiometry N (molecules of Sir3 per array) [2]	stoichiometry N (Sir2/4 per nucleosome) [2]	stoichiometry N (complexes bound per array) [2]	stoichiometry N (molecules of Sir2/4 per array) [2]
FLAG-tagged Sir3 protein (from UniProt P06701 1-978) (natural protein)	22	22			
TAP-tagged Sir2/4 complex (from UniProt P06700;P11978)			1	4	11
